The source of these data is publication PMC10243133 (Proceedings of the National Academy of Sciences of the …, 2023).

In experiment [1] the test system is mutant GLP-1R. Conditions: cited from earlier work.
Experiment [2] deals with GLP-1R endogenously expressed in the rat pancreatic INS-1E β-cell line (rat (endogenous in INS-1E)) (UniProt P32301).
GLP-1R endogenously expressed in the rat pancreatic INS-1E β-cell line (rat (endogenous in INS-1E)), sequence (P32301 22-463): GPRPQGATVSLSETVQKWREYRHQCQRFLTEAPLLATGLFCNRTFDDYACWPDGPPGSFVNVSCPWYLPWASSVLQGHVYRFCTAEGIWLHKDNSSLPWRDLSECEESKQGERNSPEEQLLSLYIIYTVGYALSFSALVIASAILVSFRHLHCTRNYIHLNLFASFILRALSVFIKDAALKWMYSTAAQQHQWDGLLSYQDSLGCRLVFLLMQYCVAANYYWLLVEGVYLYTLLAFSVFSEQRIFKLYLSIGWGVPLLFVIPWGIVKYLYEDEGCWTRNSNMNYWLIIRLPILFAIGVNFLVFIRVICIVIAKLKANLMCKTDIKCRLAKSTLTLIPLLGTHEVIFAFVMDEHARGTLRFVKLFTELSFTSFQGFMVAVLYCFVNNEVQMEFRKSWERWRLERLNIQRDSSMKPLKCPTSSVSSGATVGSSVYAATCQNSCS

As for `COc1ccc(Cl)c([C@@H](C)n2cnc3ccc(-c4ccccc4[C@H]4CCCCN4)cc32)c1Cl` [LSN3160440], the “allosteric activity in GLP-1R binding site mutants” value in experiment [1] is recorded as “only abolished in a triple mutant”. With GLP-1(9-36) (peptide), in experiment [2], the EC50 of peptide activity in rat INS-1E cells with 3 μM compound 3-20 (Emax 63%) amounted to 115 nM and the EC50 of peptide activity in rat INS-1E cells with 3 μM compound 3-24 (Emax 60%) was 100 nM.
